Experimental data from article PMC4940161, “Time-resolved studies define the nature of toxic IAPP intermediates, providing insight for anti-amyloidosis therapeutics” (eLife, 2016).
Read-outs that look alike come from different tables or passages of the source. Positions of bridges follow the written chain, without caps; N, C: chain ends. No end group written: not given here.

Tests used:
[1] = Photochemical induced cross-linking / SDS-PAGE oligomer distribution; assay type: physicochemical; details: 20 µM peptide, 20 mM Tris HCl pH 7.4, 25°C, at time points of h-IAPP toxicity, supernatant after 20,000 g 20 min, Tris(bipyridyl)Ru(II) cross-linking, silver stain
Protocol: Samples were cross-linked using Tris(bipyridyl)Ru(II), in the presence of ammonium persulfate. IAPP peptides were incubated for indicated times in 20 mM Tris HCl (pH 7.4) at 25°C. Aliquots were removed at indicated time points, centrifuged at 20,000 g for 20 min and added to the cross-linking solution. Samples contained a final concentration of 20 µM peptide, 70 µM Tris(bipyridyl)Ru(II) and 1.4 mM ammonium persulfate. Samples were illuminated with a 150 W incandescent bulb for 5 s, unless otherwise noted. The reaction was quenched by the addition of β-mercaptoethanol. The products were separated by SDS polyacrylamide gel electrophoresis using a 10–20% Tris-tricine gradient gel. Oligomer bands were visualized by silver staining (SilverXpress, Invitrogen). Quantitative analysis was carried out using GelAnalyzer software version 2010a. The relative intensity of each band was calculated by first correcting the baseline, then integrating the area under each peak.

[2] = tested on: rat INS-1 β-cells; assay: Alamar Blue reduction β-cell viability assay; assay type: cell-based; details: for Toxicity to β-cells over the time course of aggregation: 20 μM peptide solutions, 14 μM final on cells, aliquots at different time points
Protocol: Rat INS-1 β-cells (832/13) were generously provided by Professor Newgard (Duke University). β-cells were grown in RPMI 1640 supplemented with 10% fetal bovine serum (FBS), 11 mM glucose, 10 mM Hepes, 2 mM L-glutamine, 1 mM sodium pyruvate, 50 µM β-mercaptoethanol, 100 U/ml penicillin, and 100 U/ml streptomycin.
(§1) Synthetic amyloidogenic and non-amyloidogenic IAPP peptides were dissolved in 1,1,1,3,3,3-Hexafluoro-2-propanol (HFIP) for 5–12 h, aliquoted and lyophilized to a dry powder. Amyloid formation was initiated by dissolving dry HFIP-treated peptides in 20 mM Tris HCl buffer (time-zero) at pH 7.4. Samples were incubated at 25°C, unless indicated otherwise. Aliquots were removed from the peptide solutions at designated time points over the course of amyloid formation or aggregation as schematically depicted in Figure 2A. The kinetic species populated within each of the three phases of amyloid formation were concurrently characterized by biophysical methods and biological assays assessing changes in metabolism, oxidative stress, inflammation and apoptosis using INS-1 β-cells and murine pancreatic islets.
Rat INS-1 β-cells were seeded at a density of 30,000 cells per well in 96-well plates 12–16 h prior to start of experiments. Hand purified islets were seeded at a density of 25–30 islets per well in 96-well plates. Amyloid formation and aggregation assays were initiated by dissolving IAPP peptides (15 μM to 80 μM stock solutions for dose-response experiments) in 20 mM Tris HCl (pH 7.4), unless stated otherwise. Peptide solutions were incubated at 25°C, or as indicated. Aliquots were removed from amyloid formation and aggregation assays at different time points and applied exogenously to rat INS-1 β-cells (5 h incubation) or murine pancreatic islets (10 h incubation). β-cells and islets were photographed by light microscopy immediately before and after toxicity experiments to assess changes in morphology. The final range of peptide concentrations examined in β-cell and islet toxicity assays after diluting IAPP peptide solutions into cell or islet culture was 10.5 μM to 56 μM in dose-response studies, unless indicated otherwise. Cell viability was measured by Alamar Blue reduction assays, which detect changes in metabolic function, and by morphological changes detected by light microscopy. Alamar Blue was diluted ten-fold in culture medium and incubated on β-cells or islets for 5 h at 37°C. Fluorescence (530 nm excitation and 590 nm emission) was measured with a Beckman Coulter DTX880 plate reader. Values were calculated relative to control β-cells or islets treated with buffer alone. Toxicity was defined as <80% viability. Light microscopy images were captured using an Olympus BX-61 light microscope.

[3] = Amyloid formation kinetics (thioflavin-T binding, TEM); assay type: physicochemical; details: 20 mM Tris HCl pH 7.4, 25°C; for Amyloid formation: thioflavin-T binding and TEM, 20 µM peptide (3xL-IAPP 40 µM), I26P-IAPP over 35+ h
Protocol: as §1
Aliquots (100 μL) were removed from amyloid formation and aggregation assays at different time points, and added to 96-well plates containing 8 μL of a 1 mM thioflavin-T solution. Fluorescence was measured using a Beckman Coulter DTX880 plate reader (445 nm excitation and 485 nm emission). Final solution conditions contained […] and 74 µM thioflavin-T (pH 7.4).
Aliquots (4 µL) were removed from amyloid formation or aggregation assays at different time points and placed on a carbon-coated 200-mesh copper grid and negatively stained with saturated uranyl acetate. The samples were imaged with a Philips CM12 or a FEI BioTwinG2 transmission electron microscope.

[4] = Solubility assay by ultracentrifugation; assay type: physicochemical; details: 20,000 g for 20 min; UV absorbance at 215 nm
Protocol: Samples of toxic lag phase intermediates or amyloid fibrils were ultracentrifuged for 20 min (20,000 g) and the protein in the soluble fraction (the supernatant) was measured by UV absorbance (215 nm) before and after ultracentrifugation using a DU 730 Life Science UV/Vis spectrophotometer (Beckman Coulter).

[5] = tested on: rat INS-1 β-cells; details: ref Wang et al., 2014b; cited from earlier work
From the text: (§2) IAPP is expressed by all mammals examined to date; the amino acid sequences are ~80% conserved between species, however not all IAPP sequences are toxic or form amyloid in vivo (Figure 5—figure supplement 1) ([Betsholtz et al., 1989]; [Cao et al., 2013b]; [Westermark et al., 1990]).

[6] = ref Wang et al., 2014b; cited from earlier work
From the text: as §2

[7] = 1:1 addition to h-IAPP (40 µM each)
[8] = aliquots from peptide in 20 mM Tris HCl pH 7.4, 25°C, 14 μM (h-IAPP) or 28 μM (3xL-IAPP) final, 5 h on cells, toxicity defined as <80% viability

**Q.** Which results are given for “I26P-IAPP: I26P point mutant of h-IAPP; inhibitor of h-IAPP amyloid formation (KCNTATCATQRLANFLVHSSNNFGAPLSSTNVGSNTY-NH2; disulfide 2-7; ends not checked; UniProt P10997 34-70, looked up, variant I26P)”?
**A.** Distribution of oligomers in solution [1]: low order oligomers; Toxicity to β-cells over the time course of aggregation ([2]; Alamar Blue, 5 h on cells): not toxic at any time point; Effect on duration of h-IAPP cytotoxicity ([2]; 1:1 addition to h-IAPP, 80 µM total peptide, 56 µM final on cells, time-resolved Alamar Blue): increases the duration of toxicity proportionally; Effect on T50 of h-IAPP amyloid formation (time to 50% of total thioflavin-T signal change) [3, 7]: increased by a factor of two; Effect on length of h-IAPP lag phase (time to 10% of total thioflavin-T signal change) [3, 7]: increased by a factor of two; Amyloid formation [3]: non-amyloidogenic

**Q.** With “3xL-IAPP: triple mutant of h-IAPP that lacks aromatic residues (KCNTATCATQRLANLLVHSSNNLGAILSSTNVGSNTL; ends and bridges not checked; cysteine pairing not given here; UniProt P10997 34-70, looked up, variant F15L F23L Y37L)” as the substance, how does the “β-cell viability at time point of maximum toxicity” value ([2]; 40 μM peptide solution (28 μM final on cells), Alamar Blue, 5 h on INS-1 β-cells, relative to buffer treated cells, mean, three replicate experiments) read?
**A.** 67%

**Q.** And the “Toxicity of amyloid fibrils (saturation phase) to β-cells” value [2, 8]?
**A.** not toxic

**Q.** And the “Toxicity of lag phase intermediates to β-cells” value [2, 8]?
**A.** clearly still toxic

**Q.** What about the Amyloid formation [3] of the same substance?
**A.** form amyloid more slowly than the human peptide

**Q.** For “r-IAPP: non-toxic, non-amyloidogenic rat IAPP, negative control [reference compound]”, which “Solubility under ultracentrifugation conditions (control)” value [4] is on record?
**A.** soluble

**Q.** What about the “Distribution of oligomers in solution” value [1] of the same substance?
**A.** monomers to hexamers

**Q.** What about the “Toxicity to β-cells over the time course of aggregation” value ([2]; Alamar Blue, 5 h on cells) of the same substance?
**A.** not toxic at any time point

**Q.** And the “Toxicity to β-cells, dose-response” value ([2]; 28, 56 and 84 µM peptide prepared directly in cell culture medium, 24, 48 or 96 h on cells, Alamar Blue)?
**A.** No detectable toxicity

**Q.** And the “Toxicity over extended time course” value ([2]; 28 day time course, data not shown)?
**A.** not toxic over a 28 day time course

**Q.** And the Amyloid formation [3]?
**A.** does not form amyloid fibrils

**Q.** Which “Distribution of oligomers in solution” value [1] does the source give for “TM-IAPP: H18R, G24P, I26P triple mutant of h-IAPP (KCNTATCATQRLANFLVRSSNNFPAPLSSTNVGSNTY-NH2; disulfide 2-7; ends not checked; UniProt P10997 34-70, looked up, variant H18R G24P I26P)” here?
**A.** oligomerizes

**Q.** What about the Toxicity [5] of the same substance?
**A.** non-toxic

**Q.** What about the Amyloid formation [6] of the same substance?
**A.** non-amyloidogenic

**Q.** With human islet amyloid polypeptide as the substance, how does the upper limit of β-sheet content read?
**A.** < 15%
